Source: US12679888B2, “IL-18 binding protein (IL-18BP) and antibodies for treating inflammatory diseases” (AB2 BIO SA, priority 2015, dated 2026)
Where “and” joins values, the source holds several entries; their conditions need not be identical. Equal values may be shown once.

Key:
[1] = tested on: collagen-induced arthritis murine model; experiment: Collagen-induced arthritis murine model and dose extrapolation; type: in vivo, mouse
Protocol: (§1) No validated animal model has been described for this condition. In the collagen-induced arthritis murine model the active dose for r-hIL-18BP administered intraperitoneally (i.p.) was determined to be 1 mg/Kg body weight. […] Altogether the expected pharmacologically active dose for a “humanized mice” treated by s.c. route with r-hIL-18BP is round 4.85 mg/kg. […] Although the guidance was initially written for extrapolating animal doses to healthy volunteers, its principles can be applied also to patients. […] Those doses will be likely also ineffective in AoSD patients considering that blood levels of IL-18 in AoSD are higher than those reported in the two above mentioned conditions.

IL-18 [2] = target: T1, IL-18 (Homo sapiens, UniProt Q14116); experiment: Dissociation constant (Kd) used for dose selection, human; type: binding
T1 sequence (Q14116 37-193): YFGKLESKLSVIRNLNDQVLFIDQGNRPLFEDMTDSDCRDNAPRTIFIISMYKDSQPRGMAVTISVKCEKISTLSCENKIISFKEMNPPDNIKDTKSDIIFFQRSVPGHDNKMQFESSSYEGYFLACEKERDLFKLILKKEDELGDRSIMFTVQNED
Protocol: as §1

IL-18 [3] = target: T1, IL-18; experiment: KD calculation by titration of IL-18 with IL-18BP, free IL-18 ELISA (IL-18BP capture); type: binding; design: purchased; conditions: read-out: KD between human IL-18 and IL-18BP by titration
Protocol: (§2) Microplate wells are coated with an appropriate volume phosphate buffer saline solution containing recombinant human IL-18BP (r-hIL-18BP) as shown in SEQ ID NO 7, and less than 30% of N-terminal and/or C-terminal deletion variants of IL-18BP. A description of the r-hIL-18BP is provided in section 6.6.1 below. A description of the purification protocol is provided in section 6.6.2. Plates are incubated for a period of time at 4° C. and then stabilized with a blocking buffer containing bovine serum albumin or other appropriate blocking agents. Once the reaction is finished, microplates are sealed and stored at 4° C. until used for detection of free IL-18. Microplates can also be dried in a stabilizing solution allowing storage at room temperature and then be reconstituted by hydration when needed for assay.
As an example, for a final reaction volume of 100 μl, dispense first 80 μl of biotin/antibody conjugate. Samples or biological fluids containing free IL-18 are tested with the IL-18BP coated microplates. After that, 20 μl sample volume containing biological fluid or standard is dispensed per microplate well. […] The resulting reactions are then monitored with a microplate reader at an appropriate nanometer wavelength for absorbance or fluorescence of the produced reagent. […]
• KD was calculated based on the following formula: KD=[free IL-18]×[free IL-18BP]/[IL-18/IL-18BP complex] […]

IL-18 [4] = target: T1, IL-18; experiment: Titration of free IL-18 as a function of IL-18BP level (free IL-18 ELISA); type: binding; design: purchased; conditions: 400 pg/mL IL-18 in PBS, 5% BSA
Protocol: as §2, with “Microplates can also be dried in a stabilizing solution allowing storage at room temperature and then be reconstituted by hydration when needed for assay.” left out
As an example, for a final reaction volume of 100 μl, dispense first 80 μl of biotin/antibody conjugate. […] The resulting reactions are then monitored with a microplate reader at an appropriate nanometer wavelength for absorbance or fluorescence of the produced reagent.
A constant quantity of recombinant IL-18 was titrated as a function of different and well-defined quantities of IL-18BP in order to understand when free IL-18 is not any more detectable. A PBS solution of 400 pg/mL IL-18 supplemented by 5% BSA was spiked with defined quantities of IL-18BP ranging from 0 to 10′000 pg/mL. The molar ratios were calculated according to the respective molecular weight of IL-18 and IL-18BP. […]

G-CSF = G-CSF in BALF by ELISA, exacerbation/tobacco smoke mouse model; type: in vivo
Protocol: Mice received either vehicle (PBS) or IL-18BP. IL-18BP was given subcutaneously to 3 groups of animals respectively at 1, 3 or 10 mg/kg 2 h prior to the initial tobacco smoke exposure from Day 1 to Day 4. Mice received orally either vehicle or dexamethasone (10 mg/kg) 1 h prior to each twice daily exposure. Mice received by intranasal administration either the vehicle or Polyinosinic:polycytidylic acid (2 mg/kg) 2 h prior to the initial air or tobacco smoke exposure on Day 4 to induce lung inflammation exacerbation. Tobacco smoke exposure was performed during the morning and afternoon as follow: Day 1 for 15 min, Day 2 for 25 min, Day 3 for 30 min and Day 4 for 30 min.
Following the above treatments, animals were terminally anaesthetised on Day 5. After that, a blood sample was taken via the sub-clavian artery (plasma) and the animals were bronchoalveloar lavaged with 3×0.4 ml of PBS for further cellular and cytokine/mediator analysis. Bronchoalveolar lavage supernatants were stored at −80° C. for cytokine/mediator analysis. Cells recovered from the BALF were counted using the Sysmex cell counter.
G-CSF is well acknowledged as key cytokine stimulating the survival, proliferation, differentiation, and function of neutrophil precursors and mature neutrophils. […] The presence of G-CSF in the BALF was monitored with a commercially available ELISA kit.

[5] = in vivo
RA and Pso patients = experiment: Previous human studies with r-hIL-18BP in RA and Pso patients; type: in vivo; conditions: 20 mg 3 times a week
Protocol: as §1

B1: IL-18BP: soluble glycoprotein of 164 amino acids produced from a Chinese Hamster Ovary cell line; isoform a, SEQ ID NO 7 (protein, listed as Homo sapiens)
chain: TPVSQTTTAATASVRSTKDPCPSQPPVFPAAKQCPALEVTWPEVEVPLNGTLSLSCVACSRFPNFSILYWLGNGSFIEHLPGRLWEGSTSRERGSTGTQLCKALVLEQLTPALHSTNFSCVLVDPEQVVQRHVVLAQLWAGLRATLPPTQEALPSSHSSPQQQG
modifications: CHO glycosylation; MISC_FEATURE - Human interleukin-18 binding protein isoform a
- effective s.c. dose in mice ([1]; adjusted for s.c. bioavailability): 1.82 mg/kg
- active dose ([1]; administered intraperitoneally (i.p.)): 1 mg/Kg body weight
- human equivalent dose ([1]; allometric murine conversion factor of 12.3): 0.39 mg/kg
- human equivalent dose ([1]; for a 70 Kg individual): 27.3 mg
- expected pharmacologically active dose for a humanized mice ([1]; s.c. route, corrected for Kd difference): ~4.85 mg/kg
- Kd (IL-18 [2]): 0.16 nM
- Kd (IL-18 [3]; PBS supplemented by 5% BSA diluent): 0.035 nM
- Kd (IL-18 [3]; Serum diluent): 0.05 nM and ~0.05 nM
- IL-18BP concentration at which 400 pg/mL IL-18 detection is near background detection level (IL-18 [4]): ≥ 6000 pg/mL
- G-CSF release in the lung airways (BALF) (G-CSF; IL-18BP s.c., day 5): mitigates G-CSF release in the lung airways
- G-CSF release in the lung airways (BALF) (G-CSF; three tested doses 1, 3 or 10 mg/kg s.c.): statistically relevant effect
- median half-life [5]: ~40 h
- clinical efficacy (RA and Pso patients): no efficacy
